Test results taken from patent US20250171560A1.

T1: C-terminal flag-tagged ACPP transmembrane protein expressed on 293T cells (pcDNA-ACPP-flag)
T1 sequence: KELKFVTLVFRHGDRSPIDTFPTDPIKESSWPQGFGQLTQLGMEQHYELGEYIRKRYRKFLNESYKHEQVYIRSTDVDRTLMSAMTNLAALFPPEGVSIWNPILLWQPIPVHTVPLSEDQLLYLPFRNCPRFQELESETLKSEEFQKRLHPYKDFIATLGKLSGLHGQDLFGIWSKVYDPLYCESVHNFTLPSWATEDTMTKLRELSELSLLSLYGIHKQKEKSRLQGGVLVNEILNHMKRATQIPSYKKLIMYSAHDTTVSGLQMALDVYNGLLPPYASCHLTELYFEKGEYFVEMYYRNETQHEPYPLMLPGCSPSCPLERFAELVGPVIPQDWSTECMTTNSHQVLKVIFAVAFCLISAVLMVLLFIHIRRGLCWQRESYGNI


Molecular target: T1, C-terminal flag-tagged ACPP transmembrane protein expressed on 293T cells (pcDNA-ACPP-flag)
Assay: flow cytometry on 293T cells transfected with pcDNA-ACPP-flag, surface staining without permeabilisation, goat anti human-FITC secondary antibody

| % of cells in the positive gate V1R | Binder |
| --- | --- |
| 0.1% | ACPP antibody S4C7 (human full antibody) (antibody, V domains shown) VH: QMLVQSGAEVKRPGSSVTVSCETSGDTFSRYAISWLRQAPGQGLEWLGWISGNSGRADYAQNFQGRVTMTTDRSTSTAYLNLRSLRSDDTAVYYCARDAPMLFGVRGGGYYFGMDVWGQGTTVTVSS VL: EIVLTQSASSLSASVGDRVTITCRTSQNIYRYLNWYQQKPGKAPKLLIFGASTLQTGVPSRFSGSGSGTDFTLTITGLQPEDLATYYCQHSFKLPFTFGQGTRLEIK |
| 0.01% | ACPP antibody S12D9 (human full antibody) (antibody, V domains shown) VH: EVQLVQSGAEVRKPGSSVKVSCKASGDNFNNYGITWVRQAPGQGLEWMGRLITVLGLDNYAQKFQGRLTITADESTGTAYMELTGLEPEDTAVYYCARDIMSPEAIDAFDVWGQGTLVTVSS VL: QPVLTQDPVVSVALGQTVRITCQGDSLRSYYATWYQQKPGLAPVRVIFGKNSRPSGIPDRFSGSSSGNTASLTITGAQAEDEADYYCNSWDNSANHPVFGGGTKLTVL |
| 0.18% | ACPP antibody S10E12 (human full antibody) (antibody, V domains shown) VH: EVQLVQSGAEVRKPGSSVKVSCKASGDNFNNYGITWVRQAPGQGLEWMGRLITVLGLDNYAQKFQGRLTITADESTGTAYMELTGLEPEDTAVYYCARDIMSPEAIDAFDVWGQGTLVTVSS VL: DIQMTQSPSSLSASVGDRVTITCRASQDVSNYLNWYQQKPGKAPKLLIYGASNRQTGVPSRFSGSGSGTDFTLTISSLQPEDFATYYCQQEDRFPTTFGQGTKVEIK |
| 0.06% | ACPP antibody S12D4 (human full antibody) (antibody, V domains shown) VH: QMQLVQSGAEVRRPGSSVKVSCKTSGGTLNNYDINWVRQAPGQGLEWMGWMNPTSGQADFAQKFQGRVSMTRDTSINTAFMELNTLRSEDTAVYYCVRRGGKYWGQGTLVTVSS VL: QPVLTQDPAVSVALGQTVRITCQGDSLRKYYASWYQQKPGQAPRLVMYDENDRPSGIPDRFSGSSSGNTASLTITGAQADDEADYYCNSRDSSGHHVVFGGGTKVTVL |
| 0.15% | ACPP antibody S9F5 (human full antibody) (antibody, V domains shown) VH: EVQLVESGGGLVQPGGSLRLSCAASGFTFSNYWMSWVRQAPGKGLEWVAGISASGGNKYYADSVKGRFTISRDNSKNTLYLQMNSLRAEDTAVYYCAKGPIQLKRHKYVLDYWGQGTLVTVSS VL: SYELTQPPSVSVAPGQTARITCGGDALPNNSVRWYQQKPGQAPVLVIYGNSERPSGIPERFSGSNSGNTATLTISGTQAEDEADYYCQVSDKSTKYSVFGGGTKLTVL |
